A short description of series [1]: Kinetics analysis of CYP204A1 and CYPSS. To be noted: for Specific activity: pH 7.5, 15° C., 60 minutes; for Km / Vmax: Lineweaver-Burk plot. The series is classed as biochemical. How it is done:
Moreover, the activity decrease rate when the substrate concentration is increased from 10 μM to 100 μM can also be obtained by conducting the conversion of 4-cholesten-3-one at a substrate concentration of 0.1 to 500 μM and then examining the relationship between the substrate concentration and the activity of the enzyme protein. Specifically, there is prepared 1 ml of a reaction solution, which comprises […] CYP204A1 or […] CYPSS204A, 96 μg/ml spinach-derived ferredoxin, 0.1 U/ml spinach-derived ferredoxin reductase protein, 3 U/ml glucose dehydrogenase, 60 mM glucose, 2 mM NADH and 2 mM NADPH. Tris-HCl is then added to the reaction mixture to adjust to pH 7.5. 20 μl of 4-cholesten-3-one used as a substrate, dissolved in DMSO to have a final concentration of 0.1, 0.5, 1, 2, 5, 10, 20, 50, 100 or 500 μM, is added to the reaction mixture. The reaction is initiated by addition of NADH and NADPH, and it can be carried out at 200 rpm at 15° C. for 60 minutes.
(§1) To 20 ml of the cell suspension prepared in (2) above, 680 μl of X10 Bug Buster (Novagen), 20 μl of Benzonase (Novagen), and 2 ml of 40 mg/ml lysozyme were added, and the obtained mixture was then shaken at 30° C. for 30 minutes to disintegrate the cells. Thereafter, the reaction solution was centrifuged to obtain the cell-free extract. The obtained, approximately 20 ml of cell-free extract was dialyzed against 1 L of Buffer R (20 mM KPB pH 7.4, 20% glycerol) two times, and the deposited precipitate was then removed by centrifugation. The cell-free extract obtained as a supernatant herein was used in the subsequent experiments.
Using the cell-free extract prepared in (3) above, conversion of 4-cholesten-3-one was carried out at substrate concentration of 0.1 to 500 μM, and the relationship between the substrate concentration and the enzyme protein activity was examined. The reaction solution was prepared, such that 1 ml of the buffer comprised 220 pmol CYP204A1 or 250 pmol CYPSS, 96 μg/ml spinach-derived ferredoxin, 0.1 U/ml spinach-derived ferredoxin reductase protein, 3 U/ml glucose dehydrogenase, 60 mM glucose, 2 mM NADH, and 2 mM NADPH. Tris-HCl was added to the reaction solution so as to adjust it to pH 7.5. 20 μl of 4-cholesten-3-one, which had been dissolved in DMSO to a final concentration of 0.1, 0.5, 1, 2, 5, 10, 20, 50, 100 or 500 μM, was added. The reaction was initiated by addition of NADH and NADPH, and it was carried out at 200 rpm at 15° C. for 60 minutes. Thereafter, 1.5 ml of ethyl acetate was added to the reaction solution to terminate the reaction, and extraction was carried out. Then, extraction was carried out again with 0.75 ml of ethyl acetate. The obtained ethyl acetate phase was solidified using evaporator, and the residue was then dissolved in 200 μl of methanol. Thereafter, progesterone was detected by HPLC analysis. The relationship between the substrate concentration and the enzyme protein activity, and kinetics parameters calculated by production of Lineweaver-Burk plot, is shown in Table 5.

A short description of series [2]: Thermostability test of cell-free extract. The series is classed as biochemical. As to conditions: for Relative activity: 140 hr versus 0 hr; for Activity 0 hr: enzyme protein solution before conservation, reaction 15° C., 4 hours. How it is done: as §1
The cell-free extract prepared in (3) above was conserved at various temperature for 140 hours. The conservation temperature was set at 6° C., 10° C., 20° C., 30° C., 37° C., or 45° C. Using the enzyme protein solution before conservation and the sample obtained after conservation for 140 hours, conversion of 4-cholesten-3-one was carried out, and stability was examined. The reaction solution was prepared, such that 1 ml of the buffer comprised an enzyme protein solution of CYP204A1 or CYPSS that had been conserved at each temperature, 64 μg/ml spinach-derived ferredoxin, 0.1 U/ml spinach-derived ferredoxin reductase protein, 3 U/ml glucose dehydrogenase, 60 mM glucose, 50 μg/ml 4-cholesten-3-one, 2 mM NADH, and 2 mM NADPH. The reaction was initiated by addition of NADH and NADPH, and it was carried out at 200 rpm at 15° C. for 4 hours. Thereafter, 1.5 ml of ethyl acetate was added to the reaction solution to terminate the reaction, and extraction was carried out. Then, extraction was carried out again with 0.75 ml of ethyl acetate. The obtained ethyl acetate phase was solidified using an evaporator, and the residue was then dissolved in 200 μl of methanol. Thereafter, progesterone was detected by HPLC analysis. […] In particular, when the cell-free extract was conversed at 20° C. for 140 hours, CYP204A1 maintained 47% of its activity and CYPSS maintained 39% of its activity.

Setting [3] is: conserved at 6° C. for 140 hours.
Where [4] appears, read: conserved at 10° C. for 140 hours.
The mark [5] stands for this setting: conserved at 20° C. for 140 hours.
The mark [6] stands for this setting: conserved at 30° C. for 140 hours.
The mark [7] stands for this setting: conserved at 37° C. for 140 hours.
Where [8] appears, read: conserved at 45° C. for 140 hours.
[9] abbreviates: 4-cholesten-3-one concn. 0.1 μM.
Where [10] appears, read: 4-cholesten-3-one concn. 0.5 μM.
Where [11] appears, read: 4-cholesten-3-one concn. 10 μM (reference).
[12] abbreviates: 4-cholesten-3-one concn. 100 μM.
Setting [13] is: 4-cholesten-3-one concn. 500 μM.

Values joined by “and” are separate entries in the source; they are usually repeats but may differ in a detail not shown here. Equal entries are not always repeated.

Consider `CC(C)CCC[C@@H](C)[C@H]1CC[C@H]2[C@@H]3CCC4=CC(=O)CC[C@]4(C)[C@H]3CC[C@]12C` [4-cholesten-3-one], for which, in series [1] (4-cholesten-3-one 0.1 to 500 μM), the substrate inhibition result is recorded as “causes substrate inhibition”.

B1: Sphingomonas subterranea NBRC16086 P450scc CYPSS204A (CYPSS), wild type, SEQ ID NO: 2 (Novosphingobium subterraneum) (protein)
chain: MASAAAGADGLPLLDGGVPLLGHLAQFFRDPVSVLKRGYRSKGRLFAMNFMGQRMNVMLGPEHNRFFFEETDKLLSIRESMPFFLKMFSPEFYSFAEMDEYLRQRAIIMPRFKAASMKQYVPVMVEESLNLVERLGEEGEFDLIPTLGPVVMDIAAHSFMGREFHEKLGHEFFELFRDFSGGMEFVLPLWLPTPKMVKSQRAKKKLHAILQSWIDKRRASPLDPPDFFQTMIETKYPDGRAVPDEIIRHLILLLVWAGHETTAGQVSWALADLLQNPGYQQVLREEVASLLGGSDGRALGWEQAVAMEKMDLALRETERLHPVAYMLSRKASADIERDGYRIRKGEFVLLAPSVSHRMEETFRNADAYDPERFNPQNPDAQIESNSLIGFGGGVHRCAGVNFARMEMKVLVAILLQNFDMELIDEVRPIAGASTYWPAQPCRVRYKRRKLDGAGGSADVAALAKAAGCPAHA
Consider B1, for which the “Activity 140 hr” value in series [2] (setting [3]) turned out to be 11.6 µg/mL; in series [2] (setting [4]), 10.5 µg/mL; in series [2] (setting [5]), 5.6 µg/mL; in series [2] (setting [6]), 1 µg/mL; in series [2] (setting [7]), 0 µg/mL; in series [2] (setting [8]), 0 µg/mL. In addition, the Relative activity in series [2] (conserved at 6° C.) was 81%; in series [2] (conserved at 10° C.), 73%; in series [2] (conserved at 30° C.), 7%; in series [2] (conserved at 37° C.), 0%; in series [2] (conserved at 45° C.), 0%. Also, in series [2], the “Activity 0 hr” value amounted to 14.4 µg/mL. Besides, the “Vmax value compared with that of CYP204A1” value in series [1] (4-cholesten-3-one) was “approximately 1.7 times”. For the same molecule, the Specific activity in series [1] (setting [9]) was 1.9 mmol/min/mol; in series [1] (setting [10]), 20.0 mmol/min/mol; in series [1] (4-cholesten-3-one concn. 1 μM), 36.5 mmol/min/mol; in series [1] (4-cholesten-3-one concn. 2 μM), 49.5 mmol/min/mol; in series [1] (4-cholesten-3-one concn. 5 μM), 70.4 mmol/min/mol; in series [1] (4-cholesten-3-one concn. 10 μM), 67.2 mmol/min/mol. The Specific activity is listed as 72.4 mmol/min/mol in series [1] (4-cholesten-3-one concn. 20 μM), 71.2 mmol/min/mol in series [1] (4-cholesten-3-one concn. 50 μM), 60.5 mmol/min/mol in series [1] (setting [12]) and 33.6 mmol/min/mol in series [1] (setting [13]). Further, the “Specific activity relative to that at 10 μM” value was determined as 100 in series [1] (setting [11]) and 90.0 in series [1] (setting [12]). In addition, in series [1] (4-cholesten-3-one), the Km (as a rule, the substrate concentration at which the rate is half of its maximum) is 1.1 µM and ~1 µM. Further, the Vmax in series [1] (4-cholesten-3-one) is 78.7 mmol/min/mol.

B2: CYP204A1: P450scc from Novosphingobium aromaticivorans ATCC 700278, amino acid sequence SEQ ID NO: 23 (protein)
chain: MARAATAAGNGLPLLDGGVPLLGHLAQFFRDPVSVLKRGYRSKGRLFAMNFMGQRMNVMLGPEHNRFFFEETDKLLSIRESMPFFLKMFSPEFYSFAEMDEYLRQRSIIMPRFKAASMKQYVPVMVEESLNLVERLGEEGEFDLIPTLGPVVMDIAAHSFMGREFHEKLGHEFFELFRDFSGGMEFVLPLWLPTPKMVKSQRAKRKLHAILQSWIDKRRAAPLDPPDFFQTMIETKYPDGRPVPDEIIRHLILLLVWAGHETTAGQVSWALADLLQNPDYQKVLRGEISSLLGGSDGRDLGWEQAVAMEKMDLALRETERLHPVAYMLSRKARADIERDGYVIRKGEFVLLAPSVSHRMEETFRNPDAYDPERFNPANPDAQIESNSLIGFGGGVHRCAGVNFARMEMKVLVAILLQNFDMELMDEVRPIAGASTYWPAQPCRVRYRRRKLDGSEAGADMAALARAAGCPAHT
modifications: Novosphingobium aromaticivorans
For B2, the “Activity 140 hr” value turned out to be 4.5 µg/mL in series [2] (setting [3]); 3.9 µg/mL in series [2] (setting [4]); 2.5 µg/mL in series [2] (setting [5]); 0.5 µg/mL in series [2] (setting [6]); 0 µg/mL in series [2] (setting [7]); 0 µg/mL in series [2] (setting [8]). In addition, the Relative activity is recorded as 85% in series [2] (conserved at 6° C.); 74% in series [2] (conserved at 10° C.); 9% in series [2] (conserved at 30° C.); 0% in series [2] (conserved at 37° C.); 0% in series [2] (conserved at 45° C.). In addition, the “Activity 0 hr” value in series [2] was 5.3 µg/mL. For the same molecule, the Specific activity in series [1] (setting [9]) was 2.2 mmol/min/mol; in series [1] (setting [10]), 15.3 mmol/min/mol; in series [1] (4-cholesten-3-one concn. 1 μM) it was 25.2 mmol/min/mol; in series [1] (4-cholesten-3-one concn. 2 μM), 32.2 mmol/min/mol; in series [1] (4-cholesten-3-one concn. 5 μM) it was 36.1 mmol/min/mol; in series [1] (4-cholesten-3-one concn. 10 μM), 43.1 mmol/min/mol. The Specific activity in series [1] (4-cholesten-3-one concn. 20 μM) was 42.7 mmol/min/mol; in series [1] (4-cholesten-3-one concn. 50 μM), 33.5 mmol/min/mol; in series [1] (setting [12]) it was 28.7 mmol/min/mol; in series [1] (setting [13]), 20.1 mmol/min/mol. Besides, the “Specific activity relative to that at 10 μM” value in series [1] (setting [11]) came to 100; in series [1] (setting [12]), 66.6. Also, the Km in series [1] (4-cholesten-3-one) was 1 µM and ~1 µM. For the same molecule, the Vmax in series [1] (4-cholesten-3-one) stood at 47.4 mmol/min/mol.
